# Reference: US8460669B2, “Compositions and methods for identifying response targets and treating flavivirus infection responses” (Academia Sinica, priority 2005, dated 2013)
# Changes are numbered by the printed parent chain.
# T1: DVLR1/CLEC5A (Homo sapiens, UniProt Q9NY25)
# T1 construct: endogenous in cells; host or cells: human CD14+ PBMC-derived macrophages (M-CSF, 6 days)
# T1 sequence (Q9NY25 1-188): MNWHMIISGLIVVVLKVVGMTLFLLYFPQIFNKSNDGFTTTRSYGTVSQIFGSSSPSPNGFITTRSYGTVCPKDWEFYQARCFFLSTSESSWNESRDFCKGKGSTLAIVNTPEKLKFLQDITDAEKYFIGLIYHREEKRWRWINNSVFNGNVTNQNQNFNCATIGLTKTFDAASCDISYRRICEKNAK
# B1: 3E12A2: anti-human DVLR1/CLEC5A monoclonal antibody, subclone of 3E12; VH SEQ ID NO: 60, VL SEQ ID NO: 61 (antibody, V domains shown)
# VH: QVQLEESGPELVKPGASVKLSCKASGYTFTEYIIHWVKQRSGQGLEWIGWFYPGSGSIKYNEKFKDKATLTADKSSSTVYMELSGLTSEDSAVYFCARHDGYSYFDYWGQGTTLTV
# VL: QSPSSLAVSAGEKVTMSCKSSQSLLNSRTRKNYLAWYQQKPGQSPKLLIYWASTRESGVPDRFTGSGSGTDFTLTISSVQAEDLAVYYCKQSYNLYTFGGGTKLEIK
# B2: 3E12G9: anti-human DVLR1/CLEC5A monoclonal antibody, subclone of 3E12; VH SEQ ID NO: 62, VL SEQ ID NO: 63 (antibody, V domains shown)
# VH: B1 VH with E6Q
# VL: B1 VL
# B3: 8H8F5: anti-human DVLR1/CLEC5A monoclonal antibody; VH SEQ ID NO: 64, VL SEQ ID NO: 65 (antibody, V domains shown)
# VH: ESGRGLVQPGGSRKLSCAASGFTFSTSGMHWVRQAPEKGLEWVAYISSGSTTIYHADTVKGRFTISRDNPKNTLFLQMTSLRSEDTAMYYCARSGQFGNYFDYWGQGTTLTVSS
# VL: MTQSPKFLLVSAGDRVTLTCKASQSVNNDVYWYQQEPGQSPKLLIYYASNRYTGVPDRFTGSGYGTDFTFTISTVQSEDLAVYFCQHDYSSPYTFGGGTKLEIKR
# Biological target: T1, DVLR1/CLEC5A
# Assay: DV-induced TNF-α secretion from human macrophages with anti-DVLR1/CLEC5A mAbs
# Assay type: cell-based
# Conditions: for Antagonistic DV1 (suppression of DV-induced TNF-α secretion) / Antagonistic DV2 (suppression of DV-induced TNF-α secretion) / Antagonistic DV3 (suppression of DV-induced TNF-α secretion) / Antagonistic DV4 (suppression of DV-induced TNF-α secretion): antibody 10 μg/sample, p vs isotype control, m.o.i.=5, 36 h p.i.; for TNF-α release from macrophages after infection with DEN1, DEN2, DEN3 and DEN4: dose-dependent manner, ELISA of culture supernatants
# Description: Monoclonal antibodies against DVLR1/CLEC5A were generated using standard techniques. Briefly, mice were immunized with DVLR-1.Fc fusion protein, and hybridomas were formed by fusing spienocytes from the mice with P3/NSI/1-Ag4-1 [NS-1] myeloma cells (ATCC TIB-18). Among the mAbs generated, clone 9B12, the subclones of 3E12 (clones 3E12A2, 3E12C1, 3E12G9), and clone 8H8F5 suppressed TNF-α release from macrophages after infection with DEN1 (strain 766733A), DEN2 (strain PL046), DEN3 (strain H-87), and DEN4 (strain 866146A) in a dose-dependent manner. […] In accordance with standard nomenclature, each antibody is referred to via the clone number of the hybridoma that secretes it.
# According to embodiments illustrated in FIG. 19, DVLR1/CLEC5A is critical for DV-mediated TNF-α, but not IFN-α, secretion. More specifically, FIG. 19a illustrates the dose-dependency of DV and UV-DV induced TNF-α secretion by macrophages measured by ELISA at 6 h and 12 h p.i. FIG. 19b illustrates the kinetics of TNF-α expression after DV infection (m.o.i.=5). FIG. 19c illustrates the effects of DVLR1/CLEC5A and DC-SIGN shRNAs on the secretion of TNF-α, IL-6, MIP1-α, IL-8, IP-10, and IFN-α from DV-infected macrophages (m.o.i.=5). In FIG. 19d, knockdown experiments with receptor specific shRNAs illustrating that DV-induced IFN-α secretion is via the TLR7-MyD88 pathway and TNF-α secretion is via DVLR1/CLEC5A-TLR7-MyD88 pathway. FIG. 19e illustrates antagonistic anti-DVLR1/CLEC5A mAbs inhibiting TNF-α secretion in response to DV serotypes 1-4 is inhibited (see Table 3).
# M.R. mAb (anti-mannose receptor mAb; mIgG1) and murine IgM (mIgM) were used as negative controls. In both FIG. 19d and FIG. 19e, macrophages were infected with DV (m.o.i.=5) and harvested at 36 h p.i. for cytokine assays. Data are expressed as mean±s.d. of three independent experiments (using material from at least three different donors). Two-tailed, Student's t-tests were performed. “ND” represents not detected.
Molecule,Antagonistic DV1 (suppression of DV-induced TNF-α secretion),Antagonistic DV2 (suppression of DV-induced TNF-α secretion),Antagonistic DV3 (suppression of DV-induced TNF-α secretion),Antagonistic DV4 (suppression of DV-induced TNF-α secretion),"TNF-α release from macrophages after infection with DEN1, DEN2, DEN3 and DEN4"
B1,** (“**” - p < 0.01),** (“**” - p < 0.01),** (“**” - p < 0.01),* (“*” - p < 0.05),suppressed
B2,,** (“**” - p < 0.01),** (“**” - p < 0.01),,suppressed
B3,* (“*” - p < 0.05),*** (“***” - p < 0.001),** (“**” - p < 0.01),* (“*” - p < 0.05),suppressed
